The results in this text go back to doi:10.1101/2020.12.22.424058, “Structural basis for the dimerization-dependent CRISPR-Cas12f nuclease” (bioRxiv, 2020).

Data set [1] deals with the molecule itself. The data set can be described thus: cryo-EM structure; Cas12f D510A with sgRNA (222 nt) and target dsDNA (60 bp, TTTA PAM) at 1:1.2:1.3, 37°C, then SEC (Superdex 200) in 25 mM Tris-HCl pH 7.6, 150 mM NaCl, 2 mM DTT, 1 mM MgCl2; ternary complex, 3.1 Å; the two Cas12f copies are bound to one sgRNA.
Data set [2] deals with the molecule itself. The data set can be described thus: cryo-EM structure; Cas12f with sgRNA at 1:1.2, 37°C for 30 min in 25 mM Tris-HCl pH 7.6, 150 mM NaCl, 2 mM DTT, 1 mM MgCl2; binary complex, 3.9 Å; the two Cas12f copies are bound to one sgRNA.

B1: Un1Cas12f1^D510A (enzyme, UniProt A0A482D308 1-529, looked up)
chain: MAKNTITKTLKLRIVRPYNSAEVEKIVADEKNNREKIALEKNKDKVKEACSKHLKVAAYCTTQVERNACLFCKARKLDDKFYQKLRGQFPDAVFWQEISEIFRQLQKQAAEIYNQSLIELYYEIFIKGKGIANASSVEHYLSDVCYTRAAELFKNAAIASGLRSKIKSNFRLKELKNMKSGLPTTKSDNFPIPLVKQKGGQYTGFEISNHNSDFIIKIPFGRWQVKKEIDKYRPWEKFDFEQVQKSPKPISLLLSTQRRKRNKGWSKDEGTEAEIKKVMNGDYQTSYIEVKRGSKIGEKSAWMLNLSIDVPKIDKGVDPSIIGGIDVGVKSPLVCAINNAFSRYSISDNDLFHFNKKMFARRRILLKKNRHKRAGHGAKNKLKPITILTEKSERFRKKLIERWACEIADFFIKNKVGTVQMENLESMKRKEDSYFNIRLRGFWPYAEMQNKIEFKLKQYGIEIRKVAPNNTSKTCSKCGHLNNYFNFEYRKKNKFPHFKCEKCNFKENAAYNAALNISNPKLKSTKEEP
notes: Cas12f (UnCas12f1, Un1Cas12f1; also known as Cas14), 529 amino acids, 61.5 kDa; plasmid Addgene #112500; Two copies (Cas12f.1 and Cas12f.2) stand in the complex with one sgRNA and the target dsDNA; The model lacks three N-terminal and four C-terminal residues; also called Cas12f D510A mutant; source: E. coli BL21(DE3), purified (Ni-NTA, HiTrap SP HP, Superdex 200); not shown: 10xHis, N-terminal, …
As to B1, in data set [1], the stoichiometry N (commonly a count of units in the complex or per binding partner) is 2.

B2: Cas12f (UnCas12f1) (enzyme, UniProt A0A482D308 1-529, looked up)
chain: MAKNTITKTLKLRIVRPYNSAEVEKIVADEKNNREKIALEKNKDKVKEACSKHLKVAAYCTTQVERNACLFCKARKLDDKFYQKLRGQFPDAVFWQEISEIFRQLQKQAAEIYNQSLIELYYEIFIKGKGIANASSVEHYLSDVCYTRAAELFKNAAIASGLRSKIKSNFRLKELKNMKSGLPTTKSDNFPIPLVKQKGGQYTGFEISNHNSDFIIKIPFGRWQVKKEIDKYRPWEKFDFEQVQKSPKPISLLLSTQRRKRNKGWSKDEGTEAEIKKVMNGDYQTSYIEVKRGSKIGEKSAWMLNLSIDVPKIDKGVDPSIIGGIDVGVKSPLVCAINNAFSRYSISDNDLFHFNKKMFARRRILLKKNRHKRAGHGAKNKLKPITILTEKSERFRKKLIERWACEIADFFIKNKVGTVQMENLESMKRKEDSYFNIRLRGFWPYAEMQNKIEFKLKQYGIEIRKVAPNNTSKTCSKCGHLNNYFNFEYRKKNKFPHFKCEKCNFKENADYNAALNISNPKLKSTKEEP
notes: Cas12f (UnCas12f1, Un1Cas12f1; also known as Cas14), 529 amino acids, 61.5 kDa; plasmid Addgene #112500; The methods say only 'Cas12f proteins' for the binary complex with sgRNA; also called Un1Cas12f1; Cas14; source: E. coli BL21(DE3), purified (Ni-NTA, HiTrap SP HP, Superdex 200); not shown: 10xHis, N-terminal, cleaved; MBP, N-terminal, cleaved
As for B2, the binding result in data set [2] is listed as “binds”.
